{
  "source": "patent US5114710A",
  "about": "“M-CSF as a therapeutic agent for thrombocytopenia” (Green Cross Corporation, priority 1988, dated 1992)",
  "molecules": {"B1": {"name": "CSF: human monocyte-macrophage colony stimulating factor, glycoprotein homodimer of two identical subunits (35,000-45,000 daltons each), purified from human urine (protein, UniProt P09603 33-554, looked up)", "Macrophage colony-stimulating …": "EEVSEYCSHMIGSGHLQSLQRLIDSQMETSCQITFEFVDQEQLKDPVCYLKKAFLLVQDIMEDTMRFRDNTPNAIAIVQLQELSLRLKSCFTKDYEEHDKACVRTFYETPLQLLEKVKNVFNETKNLLDKDWNIFSKNCNNSFAECSSQDVVTKPDCNCLYPKAIPSSDPASVSPHQPLAPSMAPVAGLTWEDSEGTEGSSLLPGEQPLHTVDPGSAKQRPPRSTCQSFEPPETPVVKDSTIGGSPQPRPSVGAFNPGMEDILDSAMGTNWVPEEASGEASEIPVPQGTELSPSRPGGGSMQTEPARPSNFLSASSPLPASAKGQQPADVTGTALPRVGPVRPTGQDWNHTPQKTDHPSALLRDPPEPGSPRISSLRPQGLSNPSTLSAQPQLSRSHSSGSVLPLGELEGRRSTRDRRSPAEPEGGPASEGAARPLPRFNSVPLTDTGHERQSEGSFSPQLQESVFHLLVPSVILVLLAVGGLLFYRWRRRSHQEPQRADSPLEQPEGSPLTQDDRQVELPV", "modifications": "urinary homodimer", "notes": "human monocyte-macrophage colony stimulating factor, glycoprotein homodimer of two identical subunits (35,000-45,000 daltons each), purified from human urine"}},
  "key": {"[1]": {"tested_on": "patients with thrombocytopenia", "test": "Administration to patients with thrombocytopenia (summary of clinical test examples 1 and 2)", "type": "in vivo, human", "conditions": "administration in the course of chemotherapy", "source_text": "A malignant tumor patient was subjected to chemotherapy (first chemotherapy), then merely observed for a period (control phase) and, after a second chemotherapy, administered with 8×10^6 units of a glycoprotein preparation comprising the prepared in Reference Example 1 as active ingredient by intravenous drip for 7 consecutive days (preparation administration phase). Blood granulocytes and platelets were counted at timed intervals. The minimum platelet count and the number of days required for the platelet level to regain a level of at least 10^5 /mm^3 in the control phase and in the preparation administration phase are comparatively shown in Table 4.\nTen malignant tumor patients were subjected to a first chemotherapy, then observed without any treatment for a period (control phase) and, after a second chemotherapy, administered with 8×10^6 units of a glycoprotein preparation comprising the CSF prepared in Reference Example 1 as active ingredient by intravenous drip for 7 consecutive days (preparation administration phase). Blood platelets were counted at timed intervals. The minimum platelet count and the number of days required for the platelet count to regain a level of at least 10^5 /mm^3 in the control phase and in the preparation administration phase are comparatively shown in Table 5."}, "[2]": {"test": "Thermal stability: colony stimulating activity after heating", "type": "physicochemical", "conditions": "1 μg/ml, dilute buffer pH 7.0, 60±0.5° C., 60 minutes", "description": "The CSF was dissolved in a dilute buffer (pH 7.0) to a concentration of 1 μg/ml, and the solution was heated at 60±0.5° C. for 60 minutes and then assayed for colony stimulating activity (to be mentioned later herein).\n(§1) The colony stimulating activity of the CSF according to the invention was determined by the method involving colony formation of mouse marrow cells on a single-layer soft agar gel. Thus, the CSF sample was admixed with 1 ml of McCoy's 5A medium (GIBCO) containing 0.3% agar, 20% fetal calf serum (FCS) and 1×10^5 mouse marrow cells. Incubation was carried out at 37° C. for 7 days under a stream of 7.5% CO2 -containing air. Thereafter, cell aggregates consisting of 50 or more cells were judged as colonies and counted. The colony stimulating activity was expressed in units. One unit was defined as the quantity of CSF required for the formation of one colony. The specific activity was expressed in terms of the number of colonies (units) formed per milligram of the CSF protein. […] The colonies formed were stained with hematoxylin-eosin for morphological classification."}, "mouse marrow cells": {"tested_on": "mouse marrow cells", "test": "Colony stimulating activity: colony formation of mouse marrow cells on single-layer soft agar gel", "type": "cell-based", "description": "as §1"}, "[3]": {"test": "Isoelectric point by polyacrylamide gel isoelectric focusing and sucrose density gradient isoelectric focusing", "type": "physicochemical", "source_text": "The isoelectric point (pI) as determined by the polyacrylamide gel isoelectric focusing and sucrose density gradient isoelectric focusing techniques is 3.1-3.7."}},
  "note": "“Also recorded” adds a separate entry of the source.",
  "data": [
    {"molecule": "B1", "values": [
      {"measurement": "restoration of a normal platelet level", "setting": "[1]", "result": "rapid restoration of a normal platelet level"},
      {"measurement": "thermal stability (colony stimulating activity after heating)", "setting": "[2]", "result": "The biological activity is not lost; also recorded: Almost no activity decrease was observed"},
      {"measurement": "specific activity", "setting": "mouse marrow cells; Reference Example 2, CSF purified with antibody-bound carrier", "result": "5.2×10^7 units/mg"},
      {"measurement": "specific activity", "setting": "mouse marrow cells; Reference Example 2, CSF-containing solution before antibody-bound carrier treatment", "result": "2 ×10^5 units/mg"},
      {"measurement": "monocyte-macrophage colonies among the colonies formed", "setting": "mouse marrow cells; hematoxylin-eosin staining, morphological classification", "result": "at least 95%"},
      {"measurement": "specific activity", "setting": "mouse marrow cells; purification step (1) DEAE-cellulose", "result": "1.6 × 10^5 units/mg"},
      {"measurement": "specific activity", "setting": "mouse marrow cells; purification step (2) Sephacryl S-300", "result": "5.7 × 10^5 units/mg"},
      {"measurement": "specific activity", "setting": "mouse marrow cells; purification step (3) Phenyl-Sepharose", "result": "8.8 × 10^6 units/mg"},
      {"measurement": "specific activity", "setting": "mouse marrow cells; purification step (4) TSKG-3,000 SW", "result": "2.0 × 10^7 units/mg"},
      {"measurement": "specific activity", "setting": "mouse marrow cells; purification step (5) Hi-Pore RP-304 (final)", "result": "1.4 × 10^8 units/mg"},
      {"measurement": "specific activity (colony stimulating activity)", "setting": "mouse marrow cells; purified CSF, mouse marrow cells, 7 days at 37° C., one unit = one colony", "result": "1.4×10^8 units per milligram of protein"},
      {"measurement": "isoelectric point (pI)", "setting": "[3]", "result": "3.1-3.7"}
    ]}
  ]
}
